In patent US20050048527, “Endonuclease-substrate complexes” (Third Wave Technologies, Inc., published 2005) one finds cleavage rate data, which are given here for two molecules.

For one data set, the target named is T1, Pho FEN1 (Pyrococcus horikoshii, UniProt O50123 SEQ:1-343).
T1 sequence: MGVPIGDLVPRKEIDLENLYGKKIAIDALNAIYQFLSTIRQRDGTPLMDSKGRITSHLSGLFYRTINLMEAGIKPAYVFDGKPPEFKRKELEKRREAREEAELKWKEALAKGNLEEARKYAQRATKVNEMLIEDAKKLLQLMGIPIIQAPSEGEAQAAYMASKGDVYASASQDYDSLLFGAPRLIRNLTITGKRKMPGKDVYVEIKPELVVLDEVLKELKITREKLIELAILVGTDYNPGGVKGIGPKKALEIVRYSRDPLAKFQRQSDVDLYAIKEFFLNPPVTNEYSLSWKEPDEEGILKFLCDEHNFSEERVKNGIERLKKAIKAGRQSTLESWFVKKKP
Put plainly: cleavage_in_vitro; rate vs Pfu FEN1. Particulars: label: 5'-TET; X-structure. How it is done:
(§1) For the evaluation of chimeric enzymes, standard tests were performed to measure the performance and specificity of the enzymes. […] 10 μl reactions are run at 59 C for between 5 to 60 minutes depending on the enzyme. Reactions are stopped by the addition of 10 μl of 95% formamide, 0.02% methyl violet. 1 μl of the mixture is run on a denaturing 20% acrylamide gel and electrophoresed for 15 minutes or until good separation is achieved between cleaved and uncleaved probe. The gels are scanned using an FMBIO fluorescent gel scanner and the bands are quantified with FMBIOAnalysis software. Cleavage rates are determined from the percent probe cleaved. Cleavage rate for the INVADER substrate is defined as the number of probe molecules cleaved per target molecule per minute. In Table 5, below, the cleavage rates for the mutant enzymes are compared to the cleavage rates for unmodified Pfu FEN1 enzyme on the INVADER assay and X-structure substrates.
(§2) The X-structure substrate is used to determine the amount of background cleavage an enzyme will carry out in an INVADER reaction. It mimics the structure created by uncut primary probe and secondary FRET cassette in the INVADER squared reaction. […] 10 μl reactions are run at 59 C for between 3 to 30 minutes depending on the enzyme. Reactions are stopped by the addition of 10 μl of 95% formamide, 0.02% methyl violet. 1 μl of the mixture is run on a denaturing 20% acrylamide gel and electophoresed for 15 minutes or until good separation is achieved between cleaved and uncleaved probe. The gels are scanned using an FMBIO fluorescent gel scanner and the bands are quantified with FMBIOAnalysis software. Cleavage rates are determined from the percent probe cleaved.

For a further data set, the target named is T2, Pfu Y33A FEN1 (Pyrococcus furiosus, UniProt O93634 SEQ:1-340, Y33A).
T2 sequence: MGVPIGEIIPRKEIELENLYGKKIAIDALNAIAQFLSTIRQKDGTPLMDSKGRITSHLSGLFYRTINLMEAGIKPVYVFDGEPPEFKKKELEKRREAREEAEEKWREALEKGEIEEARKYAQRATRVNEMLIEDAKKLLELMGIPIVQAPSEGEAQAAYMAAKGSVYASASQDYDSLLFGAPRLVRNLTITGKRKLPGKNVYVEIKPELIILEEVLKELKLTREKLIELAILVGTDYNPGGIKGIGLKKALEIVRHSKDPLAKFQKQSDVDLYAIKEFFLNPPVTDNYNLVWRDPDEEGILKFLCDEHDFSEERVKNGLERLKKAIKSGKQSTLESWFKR
As to the kind of experiment: cleavage_in_vitro; rate vs Pfu FEN1. Particulars: label: 5'-biotin target; 5'-TET probe; hairpin target-INVADER with overlapping probe flap. How it is done: as §1, §2

B1: X-structure 203-81-2/203-91-2 (structured_DNA)
DNA 1: TTTTCAACTGCTTAGAGAATCTAAGCAGTTGGTGCGCCTCGTTAA
DNA 2: AACGAGGCGCACATT
modifications: 3'-NH2 on first strand
The molecule B1 showed a cleavage rate with Pho FEN1 of 120.

B2: INVADER substrate 594-12-1/203-91-1 (structured_DNA)
DNA 1: TTTTTCACGGCAGTTGGTGCGCCTCGGAACGAGGCGCACA
DNA 2: TTTTCAACTGCCGTGA
B2: the cleavage rate with Pfu Y33A FEN1 was determined as 0.05.
